The labels stand for the following.
B1: TRIM63 (parent)
chain: QRITQEQEKKLSFIEALIQQYQEQ
B2: TRIM55 (parent)
chain: ICPICLEMFTKPVVILPCQHNLCR

94 variants from the supplement of paper PMC10567573 can be followed below.
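Note: lentivirally expressed fusions sorted by FACS into six bins by GFP to DsRed ratio, PSI derived from sequencing read proportions per bin multiplied by bin number.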

The variants in the first data set derive from B1. Kind of data set: protein stability index of a GFP-peptide fusion (GPS, HEK-293T) (PSI 1-6); higher = more stable. Particulars: c terminus: a fixed tail appended.
For QRITGEQEKKLSFIEALIQQYQEQ [Q5G], the protein stability index turned out to be 2.62.
Still for that read-out and setting: next, QRITDEQEKKLSFIEALIQQYQEQ [Q5D]: 2.74.
The same measure, in the same setting: the same measure for QRITMEQEKKLSFIEALIQQYQEQ [Q5M]: 2.33.
The same measure, in the same setting: next, QRITAEQEKKLSFIEALIQQYQEQ [Q5A]: 2.5; QRITEEQEKKLSFIEALIQQYQEQ [Q5E]: 2.98; QRITPEQEKKLSFIEALIQQYQEQ [Q5P]: 2.13.
Turning to QRITFEQEKKLSFIEALIQQYQEQ [Q5F], the protein stability index is 1.73.
Still for that read-out and setting: the same measure for QRITIEQEKKLSFIEALIQQYQEQ [Q5I]: 2.39; for QRITSEQEKKLSFIEALIQQYQEQ [Q5S]: 2.17; for QRITCEQEKKLSFIEALIQQYQEQ [Q5C]: 2.39.
On the same count and under the same terms, the same measure for QRITKEQEKKLSFIEALIQQYQEQ [Q5K]: 2.82.
For QRITREQEKKLSFIEALIQQYQEQ [Q5R], the protein stability index was determined as 2.24.
Same read-out and setting: the same measure for QRITYEQEKKLSFIEALIQQYQEQ [Q5Y]: 2.27; for QRITNEQEKKLSFIEALIQQYQEQ [Q5N]: 2.32.
Turning to QRITTEQEKKLSFIEALIQQYQEQ [Q5T], the protein stability index amounted to 2.58.
Consider QRITWEQEKKLSFIEALIQQYQEQ [Q5W], for which the protein stability index came to 1.24.

Variants of B2 are the subject of the next data set. Described as above. Particulars: c terminus: a fixed tail appended.
Regarding ICPICLEMFTKPVVILPCQHNVCR [L22V], the protein stability index amounted to 2.55.
Take ICPICLEMFTKPVVILPCQHNACR [L22A]: the protein stability index was determined as 2.36.
Same read-out and setting: the same measure for ICPICLEMFTKPVVILPCQHNMCR [L22M]: 3.14; for ICPICLEMFTKPVVILPCQHNECR [L22E]: 2.45.
The same measure, in the same setting: the same measure for ICPICLEMFTKPVVILPCQHNSCR [L22S]: 2.4; for ICPICLEMFTKPVVILPCQHNHCR [L22H]: 2.48.
Same read-out and setting: next, ICPICLEMFTKPVVILPCQHNGCR [L22G]: 2.44; ICPICLEMFTKPVVILPCQHNDCR [L22D]: 2.64.
Take ICPICLEMFTKPVVILPCQHNWCR [L22W]: the protein stability index came out at 2.44.
Regarding ICPICLEMFTKPVVILPCQHNICR [L22I], the protein stability index was determined as 2.31.
Regarding ICPICLEMFTKPVVILPCQHNCCR [L22C], the protein stability index came to 2.04.
On the same count and under the same terms, the same measure for ICPICLEMFTKPVVILPCQHNPCR [L22P]: 2.29.
Take ICPICLEMFTKPVVILPCQHNYCR [L22Y]: the protein stability index was 2.08.
In the case of ICPICLEMFTKPVVILPCQHNTCR [L22T], the protein stability index was found to be 2.17.
Still for that read-out and setting: next, ICPICLEMFTKPVVILPCQHNRCR [L22R]: 2.51.
The same measure, in the same setting: next, ICPICLEMFTKPVVILPCQHNQCR [L22Q]: 2.72; ICPICLEMFTKPVVILPCQHNKCR [L22K]: 2.38.
The same measure, in the same setting: next, ICPICLEMFTKPVVILPCQHNNCR [L22N]: 2.54; ICPICLEMFTKPVVILPCQHNFCR [L22F]: 1.99.
With ICPICLEMFTKPVVILPCQHNLCK [R24K], the protein stability index came to 2.32.
Same read-out and setting: next, ICPICLEMFTKPVVILPCQHNLCE [R24E]: 2.11; ICPICLEMFTKPVVILPCQHNLCT [R24T]: 2.71.
On the same count and under the same terms, the same measure for ICPICLEMFTKPVVILPCQHNLCA [R24A]: 1.92.
The same measure, in the same setting: next, ICPICLEMFTKPVVILPCQHNLCL [R24L]: 2.11; ICPICLEMFTKPVVILPCQHNLCN [R24N]: 2.95.
ICPICLEMFTKPVVILPCQHNLCD [R24D]: the protein stability index amounted to 2.27.
On the same count and under the same terms, next, ICPICLEMFTKPVVILPCQHNLCG [R24G]: 2.41; ICPICLEMFTKPVVILPCQHNLCQ [R24Q]: 2.57.
The same measure, in the same setting: the same measure for ICPICLEMFTKPVVILPCQHNLCW [R24W]: 2.35; for ICPICLEMFTKPVVILPCQHNLCY [R24Y]: 2.13.
The same measure, in the same setting: next, ICPICLEMFTKPVVILPCQHNLCV [R24V]: 1.83; ICPICLEMFTKPVVILPCQHNLCH [R24H]: 2.4; ICPICLEMFTKPVVILPCQHNLCF [R24F]: 2.01.
For the variant ICPICLEMFTKPVVILPCQHNLCC [R24C], the protein stability index was determined as 2.27.
As to ICPICLEMFTKPVVILPCQHNLCM [R24M], the protein stability index was found to be 2.15.
The same measure, in the same setting: the same measure for ICPICLEMFTKPVVILPCQHNLCI [R24I]: 2.24.
With ICPICLEMFTKPVVILPCQHNLCP [R24P], the protein stability index came out at 2.32.
The same measure, in the same setting: next, ICPICLEMFTKPVVILPCQHNLCS [R24S]: 1.85; ICPICLEMFTKPVVILPCQHNLDR [C23D]: 1.97; ICPICLEMFTKPVVILPCQHNLSR [C23S]: 1.93.
For the variant ICPICLEMFTKPVVILPCQHNLLR [C23L], the protein stability index was 2.28.
Still for that read-out and setting: the same measure for ICPICLEMFTKPVVILPCQHNLVR [C23V]: 2.46.
Turning to ICPICLEMFTKPVVILPCQHNLAR [C23A], the protein stability index came out at 1.72.
The same measure, in the same setting: next, ICPICLEMFTKPVVILPCQHNLIR [C23I]: 1.82; ICPICLEMFTKPVVILPCQHNLMR [C23M]: 2.43; ICPICLEMFTKPVVILPCQHNLGR [C23G]: 2.01.
On the same count and under the same terms, the same measure for ICPICLEMFTKPVVILPCQHNLRR [C23R]: 2.47.
Still for that read-out and setting: the same measure for ICPICLEMFTKPVVILPCQHNLYR [C23Y]: 2.25; for ICPICLEMFTKPVVILPCQHNLNR [C23N]: 2.13; for ICPICLEMFTKPVVILPCQHNLQR [C23Q]: 2.21.
Consider ICPICLEMFTKPVVILPCQHNLKR [C23K], for which the protein stability index came to 2.03.
Still for that read-out and setting: next, ICPICLEMFTKPVVILPCQHNLER [C23E]: 2.65; ICPICLEMFTKPVVILPCQHNLTR [C23T]: 2.64.
On the same count and under the same terms, the same measure for ICPICLEMFTKPVVILPCQHNLHR [C23H]: 2.92; for ICPICLEMFTKPVVILPCQHNLPR [C23P]: 2.24.
On the same count and under the same terms, the same measure for ICPICLEMFTKPVVILPCQHNLWR [C23W]: 2.05; for ICPICLEMFTKPVVILPCQHNLFR [C23F]: 1.73; for ICPICLEMFTKPVVILPCQHMLCR [N21M]: 2.29.
Consider ICPICLEMFTKPVVILPCQHSLCR [N21S], for which the protein stability index stood at 2.93.
The same measure, in the same setting: next, ICPICLEMFTKPVVILPCQHWLCR [N21W]: 2.19; ICPICLEMFTKPVVILPCQHQLCR [N21Q]: 2.17.
The same measure, in the same setting: the same measure for ICPICLEMFTKPVVILPCQHYLCR [N21Y]: 2.48; for ICPICLEMFTKPVVILPCQHILCR [N21I]: 2.04; for ICPICLEMFTKPVVILPCQHHLCR [N21H]: 2.39.
The same measure, in the same setting: the same measure for ICPICLEMFTKPVVILPCQHDLCR [N21D]: 2.23; for ICPICLEMFTKPVVILPCQHFLCR [N21F]: 2.53; for ICPICLEMFTKPVVILPCQHALCR [N21A]: 2.73.
As to ICPICLEMFTKPVVILPCQHKLCR [N21K], the protein stability index was determined as 1.74.
Still for that read-out and setting: the same measure for ICPICLEMFTKPVVILPCQHELCR [N21E]: 2.54.
For ICPICLEMFTKPVVILPCQHVLCR [N21V], the protein stability index was 2.35.
As to ICPICLEMFTKPVVILPCQHGLCR [N21G], the protein stability index is 2.71.
The same measure, in the same setting: the same measure for ICPICLEMFTKPVVILPCQHRLCR [N21R]: 2.31; for ICPICLEMFTKPVVILPCQHPLCR [N21P]: 2.52; for ICPICLEMFTKPVVILPCQHLLCR [N21L]: 2.01.
ICPICLEMFTKPVVILPCQHTLCR [N21T]: the protein stability index is 2.39.
On the same count and under the same terms, the same measure for ICPICLEMFTKPVVILPCQHCLCR [N21C]: 2.2; for ICPICLEMFTKPVVILPCQYNLCR [H20Y]: 1.52.
Take ICPICLEMFTKPVVILPCQWNLCR [H20W]: the protein stability index was 1.27.
